In IntAct's records for PubMed 12852788:

B1: Lymphocyte antigen 6 complex locus protein G6f (Homo sapiens), Q5SQ64 (parent)
chain: MAVLFLLLFLCGTPQAADNMQAIYVALGEAVELPCPSPPTLHGDEHLSWFCSPAAGSFTTLVAQVQVGRPAPDPGKPGRESRLRLLGNYSLWLEGSKEEDAGRYWCAVLGQHHNYQNWRVYDVLVLKGSQLSARAADGSPCNVLLCSVVPSRRMDSVTWQEGKGPVRGRVQSFWGSEAALLLVCPGEGLSEPRSRRPRIIRCLMTHNKGVSFSLAASIDASPALCAPSTGWDMPWILMLLLTMGQGVVILALSIVLWRQRVRGAPGRDASIPQFKPEIQVYENIHLARLGPPAHKPR

Variants of: B1
Settings: with grb7_human GRB7, Q14451
Sequence of grb7_human GRB7, Q14451 (Q14451 whole entry): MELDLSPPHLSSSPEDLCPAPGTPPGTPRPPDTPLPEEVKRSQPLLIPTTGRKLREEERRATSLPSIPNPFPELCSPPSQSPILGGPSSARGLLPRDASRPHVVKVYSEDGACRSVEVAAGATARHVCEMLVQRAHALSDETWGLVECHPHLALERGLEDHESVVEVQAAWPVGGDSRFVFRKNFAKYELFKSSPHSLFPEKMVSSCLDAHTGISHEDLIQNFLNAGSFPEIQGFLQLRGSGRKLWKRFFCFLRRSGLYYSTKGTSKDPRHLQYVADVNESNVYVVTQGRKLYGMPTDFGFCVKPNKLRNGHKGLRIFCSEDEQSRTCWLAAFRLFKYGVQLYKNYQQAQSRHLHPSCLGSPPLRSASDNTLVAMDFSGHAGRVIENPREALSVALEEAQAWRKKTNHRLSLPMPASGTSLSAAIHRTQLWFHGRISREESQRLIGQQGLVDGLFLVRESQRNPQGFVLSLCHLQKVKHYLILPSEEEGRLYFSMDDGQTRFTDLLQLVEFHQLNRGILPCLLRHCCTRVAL
With MAVLFLLLFLCGTPQAADNMQAIYVALGEAVELPCPSPPTLHGDEHLSWFCSPAAGSFTTLVAQVQVGRPAPDPGKPGRESRLRLLGNYSLWLEGSKEEDAGRYWCAVLGQHHNYQNWRVYDVLVLKGSQLSARAADGSPCNVLLCSVVPSRRMDSVTWQEGKGPVRGRVQSFWGSEAALLLVCPGEGLSEPRSRRPRIIRCLMTHNKGVSFSLAASIDASPALCAPSTGWDMPWILMLLLTMGQGVVILALSIVLWRQRVRGAPGRDASIPQFKPEIQVFENIHLARLGPPAHKPR [Y281F] the “effect of a mutation on the interaction” value was “disrupting interaction strength”.

Variants of: B1
Settings: with grb2_human GRB2, P62993
Sequence of grb2_human GRB2, P62993 (P62993 whole entry, looked up): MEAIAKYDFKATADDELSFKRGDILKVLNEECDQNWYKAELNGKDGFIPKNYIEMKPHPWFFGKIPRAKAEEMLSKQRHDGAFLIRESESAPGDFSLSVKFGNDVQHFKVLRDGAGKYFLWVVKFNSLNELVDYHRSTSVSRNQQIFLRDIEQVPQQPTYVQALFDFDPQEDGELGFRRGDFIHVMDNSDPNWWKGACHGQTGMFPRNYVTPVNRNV
MAVLFLLLFLCGTPQAADNMQAIYVALGEAVELPCPSPPTLHGDEHLSWFCSPAAGSFTTLVAQVQVGRPAPDPGKPGRESRLRLLGNYSLWLEGSKEEDAGRYWCAVLGQHHNYQNWRVYDVLVLKGSQLSARAADGSPCNVLLCSVVPSRRMDSVTWQEGKGPVRGRVQSFWGSEAALLLVCPGEGLSEPRSRRPRIIRCLMTHNKGVSFSLAASIDASPALCAPSTGWDMPWILMLLLTMGQGVVILALSIVLWRQRVRGAPGRDASIPQFKPEIQVFENIHLARLGPPAHKPR [Y281F] was tested, and the “effect of a mutation on the interaction” value was “disrupting interaction strength”.
